Results published in patent US20160046721A1 (BEIJING SHENOGEN PHARMA GROUP, published 2016).
Numbering of substitutions follows the chain as printed. Names may count otherwise. “And” between values parts separate entries of the source, which are not always exact repeats. Identical values can stand only once.

T1: biotinylated GV27 peptide (human, biotinylated (site not stated))
T1 construct: also called antigen (biotinylated GV27 peptide)
T1 peptide: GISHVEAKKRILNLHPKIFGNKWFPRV

T2: GV27 peptide (ER-α36 c-terminal 27 aa) (human)
T2 construct: also called 27 aa peptide (F domain); 27-amino acid peptide derived from the F domain of ER-α36
T2 peptide: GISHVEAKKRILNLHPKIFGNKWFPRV

T3: Fc-ER66 (fusion protein of Fc and ER-α66 ligand binding domain) (human, UniProt P03372 302-595, limits assumed)
T3 construct: also called Fc-ER-α66 protein; not shown: Fc
T3 sequence (looked up): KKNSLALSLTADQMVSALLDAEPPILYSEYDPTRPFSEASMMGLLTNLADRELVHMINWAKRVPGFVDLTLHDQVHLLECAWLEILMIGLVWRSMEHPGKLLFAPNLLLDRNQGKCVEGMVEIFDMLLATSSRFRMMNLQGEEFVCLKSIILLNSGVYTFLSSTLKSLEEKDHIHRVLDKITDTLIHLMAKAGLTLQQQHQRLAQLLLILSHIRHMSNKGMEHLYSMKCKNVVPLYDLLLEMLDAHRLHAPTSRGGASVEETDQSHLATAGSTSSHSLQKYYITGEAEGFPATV

T4: Fc-LBD-D27 (Fc-LBD with the C-terminal 27 amino acids deleted) (human, UniProt P03372 339-456)
T4 construct: also called Fc-LBD with 27 amino acids deleted; not shown: Fc
T4 chain: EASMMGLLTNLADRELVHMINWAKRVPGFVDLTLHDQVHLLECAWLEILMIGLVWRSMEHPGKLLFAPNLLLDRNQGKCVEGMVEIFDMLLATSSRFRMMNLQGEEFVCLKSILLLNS

T5: Fc-LBD (fusion protein of Fc and ER-α36 ligand binding domain including the C-terminal 27 amino acids) (human)
T5 construct: Expressed in E. coli BL21 (DE3); No linker is described; also called Fc-ER-α36 LBD; not shown: Fc fused to the N terminal of the LBD
T5 chain: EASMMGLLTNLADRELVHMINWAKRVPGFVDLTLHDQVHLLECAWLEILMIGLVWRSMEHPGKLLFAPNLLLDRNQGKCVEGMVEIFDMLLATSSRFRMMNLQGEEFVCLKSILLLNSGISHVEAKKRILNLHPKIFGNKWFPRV

B1: SNGhB1 chimeric antibody (antibody, human IgG1, kappa)
light: ETTVTQSPASLSMTIGEKVTIRCITSTDIDDDMNWYRKKPGQPPKLLISEGNTLRPGVPSRFSSSGYGTDFVFTIENMLSEDVADYYCLQSDNLPLTFGAGTKLELKRTVAAPSVFIFPPSDEQLKSGTASVVCLLNNFYPREAKVQWKVDNALQSGNSQESVTEQDSKDSTYSLSSTLTLSKADYEKHKVYACEVTHQGLSSPVTKSFNRGEC
heavy: not shown
notes: Chimeric antibody: mouse V regions with human kappa and IgG1 constant regions; also called chimeric SNGmB1; SNGhB1(20111118)
B2: SNGmB1 antibody (antibody, mouse IgG2b, kappa)
light: ETTVTQSPASLSMTIGEKVTIRCITSTDIDDDMNWYRKKPGQPPKLLISEGNTLRPGVPSRFSSSGYGTDFVFTIENMLSEDVADYYCLQSDNLPLTFGAGTKLELKRADAAPTVSIFPPSSEQLTSGGASVVCFLNNFYPKDINVKWKIDGSERQNGVLNSWTDQDSKDSTYSMSSTLTLTKDEYERHNSYTCEATHKTSTSPIVKSFNRNEC
heavy: QAYLQQSGAELVRPGASVKMSCKASGYTFTSHNMHWIKQTPRQGLEWIGAIHPVNGDTAYNQKFKGKATLTVDKSSSTAYLQLSSLTSEESAVYFCAREGYGSVDYWGQGTTLTVSSAKTTPPSVYPLAPGCGDTTGSSVTLGCLVKGYFPESVTVTWNSGSLSSSVHTFPALLQSGLYTMSSSVTVPSSTWPSQTVTCSVAHPASSTTVDKKLEPSGPISTINPCPPCKECHKCPAPNLEGGPSVFIFPPNIKDVLMISLTPKVTCVVVDVSEDDPDVQISWFVNNVEVHTAQTQTHREDYNSTIRVVSTLPIQHQDWMSGKEFKCKVNNKDLPSPIERTISKIKGLVRAPQVYILPPPAEQLSRKDVSLTCLVVGFNPGDISVEWTSNGHTEENYKDTAPVLDSDGSYFIYSKLNMKTSKWEKTDSFSCNVRHEGLKNYYLKKTISRSPGK
notes: Mouse monoclonal antibody from a hybridoma, mIgG2b; Several lots were tested; also called HBD-B1; hybridoma derived SNGmB1
B3: SNGHZD (C1L + C5H) (antibody, human IgG1, kappa, V domains shown)
VH: QVQLVQSGAEVKKPGASVKVSCKASGYTFTSHNMHWVRQAPGQGLEWIGAIHPVNGDTAYNQKFKGKATLTVDKSTSTAYLELSSLRSEDTAVYYCAREGYGSVDYWGQGTLVTVSS
VL: ETTVTQSPAFMSATPGDKVNISCITSTDIDDDMNWYQQKPGEAPILIISEGNTLRPGIPPRFSSSGYGTDFTLTINNIESEDAAYYFCLQSDNLPLTFGQGTKLEIKR
notes: Humanized antibody, human IgG1/kappa, expressed in 293E6 cells; also called humanized SNGmB1 variant C1L + C5H
B4: SNGHZD (C3L + C6H) (antibody, human IgG1, kappa, V domains shown)
VH: B3 VH with L81M
VL: B3 VL with S64G
notes: Humanized antibody, human IgG1/kappa; also called humanized SNGmB1 variant C3L + C6H
B5: SNGHZD (C1L + C6H) (antibody, human IgG1, kappa, V domains shown)
VH: B3 VH with L81M
VL: B3 VL
notes: Humanized antibody, human IgG1/kappa; also called humanized SNGmB1 variant C1L + C6H
B6: SNGHZD (C2L + C6H) (antibody, human IgG1, kappa, V domains shown)
VH: B3 VH with L81M
VL: B3 VL with P44A
notes: Humanized antibody, human IgG1/kappa; also called humanized SNGmB1 variant C2L + C6H
B7: SNGHZD (C2L + C5H) (antibody, human IgG1, kappa, V domains shown)
VH: B3 VH
VL: B3 VL with P44A
notes: Humanized antibody, human IgG1/kappa; also called humanized SNGmB1 variant C2L + C5H
B8: SNGHZD (C3L + C5H) (antibody, human IgG1, kappa, V domains shown)
VH: B3 VH
VL: B3 VL with S64G
notes: Humanized antibody, human IgG1/kappa; also called humanized SNGmB1 variant C3L + C5H

How the values were obtained:
[1] = molecular target: T1, biotinylated GV27 peptide; assay: competition ELISA: plate coated with SNGhB1 (1 µg/ml), biotinylated GV27 added together with the soluble antibody, streptavidin-HRP; the sheet labels the soluble antibody SNGhB1, the legend paragraph 64 and paragraph 314 to paragraph 316 name SNGmB1
Experimental: (§1) The antigen (biotinylated GV27 peptide) was added along with different amount of the competing mouse antibody, the ELISA plates were then allowed to incubate for equilibrium before wash. Streptavidin-HRP (Sigma, S2438, 1:5000) and TMB substrate (Biopanda, China) were added and OD450 was measured on a plate reader. IgG were tested in parallel as control antibody.

[2] = molecular target: T2, GV27 peptide (ER-α36 c-terminal 27 aa); assay: Biacore; table head says human ER-α36, analyte taken as the GV27 peptide of Example 5
[3] = molecular target: T1, biotinylated GV27 peptide; assay: competition ELISA: plate coated with hybridoma SNGmB1 (1 µg/ml), biotinylated GV27 added together with soluble SNGmB1, streptavidin-HRP
Experimental: as §1

[4] = molecular target: T3, Fc-ER66 (fusion protein of Fc and …); assay: ELISA, plate coated with Fc-ER66 at 1 ug/ml, HRP anti-mouse IgG Fc
Experimental: (§2) Five different proteins were used to coat the assay plate at 1 μg/ml.

[5] = molecular target: T1, biotinylated GV27 peptide; assay: competition ELISA: plate coated with humanized SNGmB1 ('hzdSNGmB1', 1 µg/ml), biotinylated GV27 added together with soluble SNGmB1, streptavidin-HRP
Experimental: as §1

[6] = molecular target: T2, GV27 peptide (ER-α36 c-terminal 27 aa); assay: ELISA, plate coated with the 27-aa peptide at 1 ug/ml, SNGmB1 in 5-fold dilutions from 10 ug/ml, HRP anti-mouse IgG Fc
Experimental: as §2

[7] = molecular target: T4, Fc-LBD-D27 (Fc-LBD with the C-terminal …); assay: ELISA, plate coated with Fc-LBD-D27 at 1 ug/ml, HRP anti-mouse IgG Fc
Experimental: as §2

[8] = molecular target: T5, Fc-LBD (fusion protein of Fc and ER-α36 …); assay: ELISA, plate coated with Fc-LBD at 1 ug/ml, SNGmB1 in 5-fold dilutions from 10 ug/ml, HRP anti-mouse IgG Fc
Experimental: as §2

[9] = molecular target: T2, GV27 peptide (ER-α36 c-terminal 27 aa); assay: Biacore, antibody captured on anti-mouse Fc, GV27 injected
Experimental: A chip coated with the IgG but without the test antibody was used as a control.
Antibody was captured on anti-mouse/human FC IgG coated surface and peptide was injected over the surface. Empty FC1 was used as a reference channel. The chip surface was regenerated with Gly 1.5.
A Series S CM5 sensor chip (9000RU) (BIACORE) was activated in the FC 2, FC 3 and FC 4 chips by 7-min injection (10 μl/min) of freshly prepared mixture with equal volume of 50 mM NHS and 200 mM EDC. […] Active coupling sites were blocked with 7 min injection of 1M ethanolamine at 10 μl/min. Each antibody was captured over the chip surfaces respectively (FC2, FC3 and FC4, FC1 as a reference cell) and the captured signal was around 500 RU. […] The sensor surfaces were regenerated by injecting regeneration buffer (10 mM glycine buffer with pH 1.5) for 90 s. As a control, GV27 was also injected in different concentrations over the surfaces of FC without captured antibodies.

[10] = molecular target: T2, GV27 peptide (ER-α36 c-terminal 27 aa); assay: ELISA on the coated 27-aa peptide, antibody in 5-fold dilutions from 10 ug/ml
[11] = molecular target: T2, GV27 peptide (ER-α36 c-terminal 27 aa); assay: as above

Row | Binder | Kd [2] [nM] | koff [2] | kon [2] | other results
1 | B1 | 0.163 | 0.000283 s⁻¹ | 1.74e+06 M⁻¹ s⁻¹ | IC50 (read off the curve) [1]: ~0.5 µg/mL
2 | B2 | – | 0.000129 s⁻¹ and 0.000319 s⁻¹ | 2.12e+06 M⁻¹ s⁻¹ and 1.76e+06 M⁻¹ s⁻¹ | IC50 (read off the curve) [3]: ~0.5 µg/mL; binding result [4]: no binding (tested: 10 ug/ml); IC50 (read off the curve) [5]: ~0.5 µg/mL; EC50 (read off the curve) [6]: ~0.6 µg/mL; binding result [7]: no binding (tested: 10 ug/ml); EC50 (read off the curve) [8]: ~0.05 µg/mL; Kd [9]: ~0.1 nM
3 | B3 | 0.164 | 0.000122 s⁻¹ | 744000 M⁻¹ s⁻¹ | –
4 | B4 | 0.271 | 0.00036 s⁻¹ | 1.33e+06 M⁻¹ s⁻¹ | –
5 | B5 | 0.105 | 0.000302 s⁻¹ | 2.89e+06 M⁻¹ s⁻¹ | EC50 (read off the curve) [10]: ~0.05 µg/mL
6 | B6 | 0.31 | 0.000398 s⁻¹ | 1.28e+06 M⁻¹ s⁻¹ | –
7 | B7 | 0.13 | 0.000488 s⁻¹ | 3.46e+06 M⁻¹ s⁻¹ | EC50 (read off the curve) [11]: ~0.04 µg/mL
8 | B8 | 0.1 | 0.000356 s⁻¹ | 3.54e+06 M⁻¹ s⁻¹ | –
